Experimental findings from the supplement of paper PMC9170038 are described below.

The data set deals with MS2 coat protein. Description: apparent KD of MS2 coat protein; designed switch direction (-1 OFF switch, 1 ON switch): -1; higher = weaker reporter binding. In outline:
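Designed RNA switches were transcribed on Illumina chips by stalled E. coli RNA polymerase and titrated with SNAP-549-labelled MS2 coat protein from 0.7 or 1.5 nM, doubling to 3 µM. Step length ran from 0.8–1.5 h at the lowest concentration to 10–20 min at the highest. The apparent KD is the median over clusters for each design, from curve-fitted normalised cluster fluorescence.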

[1] abbreviates: input ligand: microRNA oligo, concentration not stated.
[2] abbreviates: Eterna round: R95, input ligand: microRNA oligo, concentration not stated.
The mark [3] stands for this setting: Eterna round: R95, input ligand: FMN 200 uM.
[4] abbreviates: Eterna round: R95, input ligand: none.

As for “CUUGUUUAUGUAGGAUAUGCCUGGCGUGCCUUUGCAGAAGGACAUGAGGAUCACCCAUGUAACAUGAGGCUCACCCAUGUCGCG [salish99_ExNG1_r04_105] (Eterna round: R96, puzzle: Exclusion NG 1)”, the “apparent KD of MS2 coat protein” value (input ligand: FMN 200 uM) is 293 nM, the “apparent KD of MS2 coat protein” value under setting [1] was determined as 213 nM and the “apparent KD of MS2 coat protein” value (input ligand: none) amounted to 327 nM.
As for “CUUUAGCAAGCGAGAUCCCACAUGAGGAUCACCCAUGUGCAUCCAGAAUUACUGGGUGCAAAAGCUCGUCUUAUAUC [mod-Eli newdang-1b] (Eterna round: R97, puzzle: Sensor, turn-off variant 1)”, the “apparent KD of MS2 coat protein” value runs as follows: (input ligand: FMN 200 uM) 58.4 nM; (input ligand: none) 62.6 nM.
“CUUUGCACGCUGCGGUCCUACAUGAGGAUCACCCAUGUGGUCUGGUGGCGUGGGUCGCCGGACUUGGCUCGUCUUGU [salish99_S_TOV1_R5_041] (Eterna round: R97, puzzle: Sensor, turn-off variant 1)”: the “apparent KD of MS2 coat protein” value runs as follows: (input ligand: FMN 200 uM) 18.2 nM; (input ligand: none) 18.8 nM.
On to “CUUUUGUCAGGAUAUCGUGCAUACAACGAAAGUUCUAUGUGCGAGAAGGGACAUGAGGAUCACCCAUGUUACGG [Omei Ex4 A6] (Eterna round: R97, puzzle: Exclusion 4)”, for which the “apparent KD of MS2 coat protein” value runs as follows: (input ligand: FMN 200 uM) 175 nM; (input ligand: none) 677 nM.
On to “CUUUUGUGAGGAUAUCAGUAGUAAAAAAAUAAAAUUACUUCUGAGAAGGCACAUGAGGAUCACCCAUGUUCCUC [salish99_ex4_r3_027] (puzzle: Exclusion 4)”, for which the “apparent KD of MS2 coat protein” value under setting [2] was 37.4 nM.
On to “CUUUUGUGAGGAUAUCAGUAGUAAAAUAAUAAAUAUACUACUGAGAAGGCACAUGAGGAUCACCCAUGUUCCUC [Mat - Exclusion 4 - Mod of Salish - D74] (puzzle: Exclusion 4)”, for which, under setting [2], the “apparent KD of MS2 coat protein” value stood at 35 nM.
Still for that read-out and setting: for “CUUUUGUGAGGAUAUCAGUAGUAGAACAAUAGUACUACUACUGAGAAGGCACAUGAGGAUCACCCAUGUACCUC [Fiskers Ex 4 Super stable 44 mod 3] (puzzle: Exclusion 4)” the value was 18.8 nM; for “CUUUUGUGAGGAUAUCAGUAGUAUAAAAAUAAAAUUACUACUGAGAAGGCACAUGAGGAUCACCCAUGUUCCUC [salish99_ex4_r3_017] (puzzle: Exclusion 4)”, 37.4 nM.
Regarding “CUUUUGUGAGGAUAUUAGUAGUUUAUAAUUGGUGUUAUUGCUGAGAAGGCACAUGAGGAUCACCCAUGUACAAC [JR_Ex4_Sub033] (Eterna round: R97, puzzle: Exclusion 4)”, the “apparent KD of MS2 coat protein” value was found to be 97.9 nM (input ligand: FMN 200 uM) and 37 nM (input ligand: none).
Take “CUUUUGUGAGGAUAUUUGUAGUAAAUAAAUAAAAUUACUACUGAGAAGGCACAUGAGGAUCACCCAUGUUCCUC [salish99_ex4_r3_042] (Eterna round: R96, puzzle: Exclusion 4)”: the “apparent KD of MS2 coat protein” value (input ligand: FMN 200 uM) is 200 nM, the “apparent KD of MS2 coat protein” value under setting [1] turned out to be 24.4 nM and the “apparent KD of MS2 coat protein” value (input ligand: none) came out at 28.6 nM.
With “CUUUUGUGAGGAUAUUUGUAGUAAAUAAAUAAAAUUACUACUGAGAAGGCACAUGAGGAUCACCCAUGUUCCUC [salish99_ex4_r3_042] (puzzle: Exclusion 4)”, the “apparent KD of MS2 coat protein” value under setting [2] stood at 27.7 nM.
For “GAAAACGAAGAGGAUAUAUGAUAUCAAAGCUUCAUAGAAGGCUUCACAUGAGGAUCACCCAUGUGAUCUUCAAU [Mat - Exclusion 6 - JL Mod - D23] (Eterna round: R97, puzzle: Exclusion 6)”, the “apparent KD of MS2 coat protein” value stood at 244 nM (input ligand: FMN 200 uM) and 41.6 nM (input ligand: none).
As for “GAAAACGCAGAGGAUAUUUCAGAUCAAAGCUGCAAAGAAGGCUGCACAUGAGGAUCACCCAUGUGGUCUCAAAA [Mod of Quesina 3 - Jieux - Exclusion 6] (Eterna round: R97, puzzle: Exclusion 6)”, the “apparent KD of MS2 coat protein” value (input ligand: FMN 200 uM) was 422 nM and the “apparent KD of MS2 coat protein” value (input ligand: none) stood at 33.6 nM.
Regarding “GAAAACGCUGAGGAUAUUUCUGAUCAAAGCAGCAAAGAAGGCAGCACAUGAGGAUCACCCAUGUGGUCUUCAAG [Mat - Exclusion 6 - JL Mod - D12] (Eterna round: R97, puzzle: Exclusion 6)”, the “apparent KD of MS2 coat protein” value reads like this: (input ligand: FMN 200 uM) 243 nM; (input ligand: none) 44.7 nM.
Consider “GAAAACGUAGGAUAUUAAUACUCAGACAUGAGGAUCACCCAUGUUUGGUGGGUUUAAGAAUGAGAAGGGCGAUGAA [EX5 #6] (Eterna round: R97, puzzle: Exclusion 5)”, for which the “apparent KD of MS2 coat protein” value runs as follows: (input ligand: FMN 200 uM) 49 nM; (input ligand: none) 49 nM.
“GAAAACGUAGGAUAUUAAUACUUAUACAUGAGGAUCACCCAUGUUUGGUGGGUAAAAGAAUGAGAAGGGCGAUGAA [EX5 #9] (Eterna round: R97, puzzle: Exclusion 5)”: the “apparent KD of MS2 coat protein” value reads like this: (input ligand: FMN 200 uM) 392 nM; (input ligand: none) 425 nM.
As for “GAAAAGGUAGAGGAUAUUUCAGAUCAAAGCUGCAAAGAAGGCUGCACAUGAGGAUCACCCAUGUGGUCAAUAAA [Mod of Quesina 12 - Jieux - Exclusion 6] (Eterna round: R97, puzzle: Exclusion 6)”, the “apparent KD of MS2 coat protein” value runs as follows: (input ligand: FMN 200 uM) 59.7 nM; (input ligand: none) 20.9 nM.
In the case of “GAAAAGGUAGGAUAUACGAAAAGAAAGGGUAGAAGAAGAACACAUGAGGAUCACCCAUGUAGAAGGACCAAAAG [Mat - Exclusion 2 - Mod of my Tesla design - D1] (puzzle: Exclusion 2)”, the “apparent KD of MS2 coat protein” value under setting [3] is 73.1 nM, the “apparent KD of MS2 coat protein” value under setting [2] was 18.5 nM and the “apparent KD of MS2 coat protein” value under setting [4] worked out at 16.5 nM.
Regarding “GAAAAGGUAGGAUAUCGAGACCAUAACAUGAGGAUCACCCAUGUGAUACCUACAGUGGUCCGAGAAGGACCAUAUA [Iserdianqu] (puzzle: Exclusion 5)”, the “apparent KD of MS2 coat protein” value under setting [3] is 62.1 nM, the “apparent KD of MS2 coat protein” value under setting [2] was found to be 20.4 nM and the “apparent KD of MS2 coat protein” value under setting [4] came to 19.3 nM.
Regarding “GAAAAGUAAGGAUAUGUCCACAGUGAGGAAACUCACUGUGGACAGAAGGUACAUGAGGAUCACCCAUGUUCCUC [ExDelusion 4 - Jieux - Exclusion 4] (Eterna round: R97, puzzle: Exclusion 4)”, the “apparent KD of MS2 coat protein” value by setting is: (input ligand: FMN 200 uM) 577 nM; (input ligand: none) 44.2 nM.
For “GAACUAAAGCAAAGCUUUAGUCGUACAUGAGGAUCACCCAUGUAGGAUAUGGUAGGCAAAGCAUACCAGAAGGACAGAGUGAUC [Mat - Exclusion NG 3 - Mod of JL - D63] (Eterna round: R96, puzzle: Exclusion NG 3)”, the “apparent KD of MS2 coat protein” value (input ligand: FMN 200 uM) worked out at 211 nM, the “apparent KD of MS2 coat protein” value under setting [1] came to 134 nM and the “apparent KD of MS2 coat protein” value (input ligand: none) came out at 371 nM.
Regarding “GAACUGAGGCAAAGCUUUAGUCGUACAUGAGGAUCACCCAUGUAGGAUAUGGUAGGCAAAGCAUACCAGAAGGACAGAGUGAUC [Mat - Exclusion NG 3 - Mod of JL - D61] (Eterna round: R96, puzzle: Exclusion NG 3)”, the “apparent KD of MS2 coat protein” value (input ligand: FMN 200 uM) amounted to 877 nM, the “apparent KD of MS2 coat protein” value under setting [1] is 313 nM and the “apparent KD of MS2 coat protein” value (input ligand: none) was 476 nM.
“GAAGAAGAGAGAAAAGAAAACAUGAGGAUCACCCAUGUGAGAAGAUGAGGGUGUAGCAGGCUUUAUGCUCGUCUUAU (puzzle: Sensor v3, turn-off variant 1)”: the “apparent KD of MS2 coat protein” value was found to be 27.5 nM under setting [3], 78.5 nM under setting [2] and 27.9 nM under setting [4].
As to “GAAGAGACAGGAUAUACAUGAGGAUCACCCAUGUGAGGAGGAAGAGAGAGGAGAAGGAGUAGAAGGGUCAGAGG [JR_Exclu3_Sub028] (puzzle: Exclusion 3)”, the “apparent KD of MS2 coat protein” value under setting [3] turned out to be 32.1 nM, the “apparent KD of MS2 coat protein” value under setting [2] is 41.2 nM and the “apparent KD of MS2 coat protein” value under setting [4] was found to be 46.5 nM.
Turning to “GAAGUUAGAGGAUAUACAUGAGGAUCACCCAUGUAUGAAGUUAACUUUGUAUAUAAAUGUAGAAGGCUAACUUC [-21.1, -19.6 kcal, 36% A] (Eterna round: R97, puzzle: Exclusion 3)”, the “apparent KD of MS2 coat protein” value runs as follows: (input ligand: FMN 200 uM) 41.6 nM; (input ligand: none) 25.6 nM.
For “GAAUACAAGCAAAGAUCCUACAUGAGGAUCACCCAUGUGCUCGUCUUGUAAAGUACUAUCACGAAAGUGAUAGUACA [Mat - Sensor v3 - turn-off var 1 - Eli Mod - D78] (puzzle: Sensor v3, turn-off variant 1)”, the “apparent KD of MS2 coat protein” value was found to be 76.7 nM under setting [3], 16.9 nM under setting [2] and 60.1 nM under setting [4].
Take “GACAUGUGAGGAUAUUGCAUAUAGUUAUAAGUUCAGGGCGGCAAGAAGGCACAUGAGGAUCACCCAUGUACCUU [Eternabot (L2) Solution 81] (Eterna round: R97, puzzle: Exclusion 4)”: the “apparent KD of MS2 coat protein” value was found to be 18.7 nM (input ligand: FMN 200 uM) and 15.3 nM (input ligand: none).
In the case of “GACGCUGACCGAGGAUAUACAAUAAAACAACAAACACCUCGUGUCAGAACAUGAGGAUCACCCAUGUAGAAGGCGGCAGGUCUA [Teateus] (Eterna round: R96, puzzle: Exclusion NG 2)”, the “apparent KD of MS2 coat protein” value under setting [1] came to 31.6 nM.
With “GACUAGAGAGGAUAUAUUUACAGUGUACCUCGGAUGAUCGCACUUGAGGAUCACCCAAGUAGAAGGCUCGAGGG [EX2 #29] (Eterna round: R97, puzzle: Exclusion 2)”, the “apparent KD of MS2 coat protein” value runs as follows: (input ligand: FMN 200 uM) 11 nM; (input ligand: none) 15.2 nM.
Turning to “GACUGCCGAGGAUAUACAUGAGGAUCACCCAUGUGCUUCAGUAUCGAAAGAUGCAUGGGUAGAAGGCGGUAGUC [LRO-Excl3-10] (Eterna round: R96, puzzle: Exclusion 3)”, the “apparent KD of MS2 coat protein” value was 912 nM (input ligand: FMN 200 uM), 627 nM under setting [1] and 1410 nM (input ligand: none).
“GACUGCCGAGGAUAUACAUGAGGAUCACCCAUGUGCUUCAGUAUCGAAAGAUGCAUGGGUAGAAGGCGGUAGUC [LRO-Excl3-10] (puzzle: Exclusion 3)”: the “apparent KD of MS2 coat protein” value under setting [2] was 172 nM.
In the case of “GACUGCUGAGGAUAUACAUGAGGAUCACCCAUGUGCUUCAGCUACGAGAGUAGCAUUGGUAGAAGGUAGUAGUC [LRO-Excl3-04] (puzzle: Exclusion 3)”, under setting [2], the “apparent KD of MS2 coat protein” value is 11.1 nM.
